Test results: patent EP4713368A1 (dated 2026)

Experiments:
[1] = target: T1, human CD28 (human, UniProt P10747 19-152, limits assumed); assay: affinity maturation of CD28-binding antibodies (Example 10: Discovery of Additional Antibodies that Bind to CD28)
T1 construct: also called Cluster of Differentiation 28; Tp44

[2] = target: T1, human CD28; assay: selection from yeast-presented heavy chain-only libraries (HCAb format)
[3] = target: T1, human CD28; assay: selection from yeast-presented libraries of heavy chains and CD3-binding light chains

binding result [1] | Binder | also measured
binds | Ab No. 28a (antibody, V domains shown, derived from Ab No. 28 by modifying VH CDRs, VL unchanged; IgG format) VH: EVQLLESGGGLVQPGGSLRLSCAASGFTFGSYAMHWVRQAPGKGLEWVSAISGSGQSTDYADSVKGRFTISRDNSKNTLYLQMNSLRAEDTAVYYCVRGYRLVGILTGSHFDYWGQGTLVTVSS VL: DIQMTQSPSTLSASVGDRVTITCRASQSIGSWLAWYQQKPGKAPKLLIYKASSLESGVPSRFSGSGSGTEFTLTISSLQPDDFATYYCQQYNILPPTFGGGTKVEIK | 
binds | Ab No. 28e (antibody, V domains shown, derived from Ab No. 28 by modifying VH CDRs, VL unchanged; IgG format) VH: EVQLLESGGGLVQPGGSLRLSCAASGFTFGRYAMSWVRQAPGKGLEWVSAISGDAGSTFYADSVKGRFTISRDNSKNTLYLQMNSLRAEDTAVYYCVRGYRLVGILTGSHFDYWGQGTLVTVSS VL: DIQMTQSPSTLSASVGDRVTITCRASQSIGSWLAWYQQKPGKAPKLLIYKASSLESGVPSRFSGSGSGTEFTLTISSLQPDDFATYYCQQYNILPPTFGGGTKVEIK | 
binds | Ab No. 28f (antibody, V domains shown, derived from Ab No. 28 by modifying VH CDRs, VL unchanged; IgG format) VH: EVQLLESGGGLVQPGGSLRLSCAASGFTFSTYGMNWVRQAPGKGLEWVSAISGSGLNTYYADSVKGRFTISRDNSKNTLYLQMNSLRAEDTAVYYCVRGYRLVGILTGSHFDYWGQGTLVTVSS VL: DIQMTQSPSTLSASVGDRVTITCRASQSIGSWLAWYQQKPGKAPKLLIYKASSLESGVPSRFSGSGSGTEFTLTISSLQPDDFATYYCQQYNILPPTFGGGTKVEIK | 
binds | Ab No. 28d (antibody, V domains shown, derived from Ab No. 28 by modifying VH CDRs, VL unchanged; IgG format) VH: EVQLLESGGGLVQPGGSLRLSCAASGFTFDAYAMSWVRQAPGKGLEWVSAISGSGVRTYYADSVKGRFTISRDNSKNTLYLQMNSLRAEDTAVYYCVRGYRLVGILTGSHFDYWGQGTLVTVSS VL: DIQMTQSPSTLSASVGDRVTITCRASQSIGSWLAWYQQKPGKAPKLLIYKASSLESGVPSRFSGSGSGTEFTLTISSLQPDDFATYYCQQYNILPPTFGGGTKVEIK | 
binds | Ab No. 28c (antibody, V domains shown, derived from Ab No. 28 by modifying VH CDRs, VL unchanged; IgG format) VH: EVQLLESGGGLVQPGGSLRLSCAASGFPFSAYGMSWVRQAPGKGLEWVSAISGSGGNTDYADSVKGRFTISRDNSKNTLYLQMNSLRAEDTAVYYCVRGYRLVGILTGSHFDYWGQGTLVTVSS VL: DIQMTQSPSTLSASVGDRVTITCRASQSIGSWLAWYQQKPGKAPKLLIYKASSLESGVPSRFSGSGSGTEFTLTISSLQPDDFATYYCQQYNILPPTFGGGTKVEIK | 
binds | Ab No. 28b (antibody, V domains shown, derived from Ab No. 28 by modifying VH CDRs, VL unchanged; IgG format) VH: EVQLLESGGGLVQPGGSLRLSCAASGFTFSKYQMSWVRQAPGKGLEWVSAISGTGESTDYADSVKGRFTISRDNSKNTLYLQMNSLRAEDTAVYYCVRGYRLVGILTGSHFDYWGQGTLVTVSS VL: DIQMTQSPSTLSASVGDRVTITCRASQSIGSWLAWYQQKPGKAPKLLIYKASSLESGVPSRFSGSGSGTEFTLTISSLQPDDFATYYCQQYNILPPTFGGGTKVEIK | 
 | Ab No. 70 (antibody, V domains shown, HCAb format (dimer of VH-hinge-CH2-CH3, no VL, CL or CH1)) VH: EVQLLESGGGLVQPGGSLRLSCAASGFTFSDYAMSWVRQAPGKERELVSIISASGGTTYYAGSVKGRFTISRDNSKNTLYLQMNSLRAEDTAVYYCAAHASGSYYLDASRDYDADYWGQGTQVTVSS | binding result [2]: binds
 | Ab No. 78 (antibody, V domains shown, HCAb format (dimer of VH-hinge-CH2-CH3, no VL, CL or CH1)) VH: EVQLLESGGGLVQPGGSLRLSCAASGFTFDTYSMNWFRQAPGKERELVSAISGVGSTYYADSVKGRFTISRDNSKNTLYLQMNSLRAEDTAVYYCHARGFRLGYDFDYYWGQGTQVTVSS | binding result [2]: binds
 | Ab No. 83 (antibody, V domains shown, HCAb format (dimer of VH-hinge-CH2-CH3, no VL, CL or CH1)) VH: EVQLLESGGGLVQPGGSLRLSCAASGFTFSDHSMNWYRQAPGKERELVSAISGSGGSTYYADSVKGRFTISRDNSKNTLYLQMNSLRAEDTAVYYCNARRYQSSGGDVWGQGTQVTVSS | binding result [2]: binds
 | Ab No. 61 (antibody, V domains shown, IgG format) VH: EVQLLESGGGLVQPGGSLRLSCAASGFTFDHYAMSWVRQAPGKGLEWVSAISASGDETYYADSVKGRFTISRDNSKNTLYLQMNSLRAEDTAVYYCARDSPHMATYKSYYYYGMDVWGQGTTVTVSS VL: DIVMTQSPDSLAVSLGERATINCKSSQSLLNARTGKNYLAWYQQKPGQPPKLLIYWASTRESGVPDRFSGSGSGTDFTLTISSLQAEDVAVYYCKQSYSLRTFGGGTKVEIK | binding result [3]: binds
 | Ab No. 68 (antibody, V domains shown, IgG format) VH: EVQLVESGGGLVQPGGSLRLSCAASGFTFQSYAMNWVRQAPGKGLEWVSYISDDASTIYYADSVKGRFTISRDNAKNSLYLQMNSLRAEDTAVYYCAREVHRGWGAFDIWGQGTMVTVSS VL: DIVMTQSPDSLAVSLGERATINCKSSQSLLNARTGKNYLAWYQQKPGQPPKLLIYWASTRESGVPDRFSGSGSGTDFTLTISSLQAEDVAVYYCKQSYSLRTFGGGTKVEIK | binding result [3]: binds
 | Ab No. 60 (antibody, V domains shown, IgG format; also called ADI-83102) VH: EVQLLESGGGLVQPGGSLRLSCAASGFTFDNYAMSWVRQAPGKGLEWVSAISADAGQTYYADSVKGRFTISRDNSKNTLYLQMNSLRAEDTAVYYCARDSPHMATYKSYYYYGMDVWGQGTTVTVSS VL: DIVMTQSPDSLAVSLGERATINCKSSQSLLNARTGKNYLAWYQQKPGQPPKLLIYWASTRESGVPDRFSGSGSGTDFTLTISSLQAEDVAVYYCKQSYSLRTFGGGTKVEIK | binding result [3]: binds
